Experimental findings from US20080248043A1 are described below.

Experiment [1] deals with antigen of Table 4 (native or denatured; not named). Description: native conditions; 10 µg/ml.
The target is the same in experiment [2]. Description: denatured conditions; 10 µg/ml.
Experiment [3] has the same target. Description: native conditions; dilution 1:5.

For Cont, the results for the OD (read-out not given) in experiment [1], in experiment [2] and in experiment [3] were 0.738, 0.146 and 0.052, respectively.
